Laboratory results published in the supplement of paper PMC5998384.

Tests used:
[1] = test system: HeLa Kyoto; experiment: melting temperature (median over replicates), in situ; higher = more thermally stable
[2] = test system: HeLa Kyoto; experiment: solubility in G1/S (NP-40 vs SDS abundance) (log2 ratio); higher = more soluble; settings: cell cycle stage: G1/S
[3] = test system: HeLa Kyoto; experiment: thermal stability score vs G1/S (z-score of summed log2 fold changes over temperatures); higher = more thermally stable than in G1/S
[4] = test system: HeLa Kyoto; experiment: solubility change mitosis vs G1/S (difference of NP-40 vs SDS log2 ratios) (log2 ratio difference); higher = more soluble in mitosis
[5] = cell cycle stage: early G1 (4.5 h after nocodazole release)
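Wherever melting temperature (median over replicates), in situ is given: HeLa Kyoto cells synchronized by double thymidine or nocodazole block, proteins quantified by TMT10plex mass spectrometry, three independent biological replicates.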
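Wherever solubility change mitosis vs G1/S (difference of NP-40 vs SDS log2 ratios) is given: synchronized HeLa Kyoto cells (double thymidine block for G1/S, nocodazole release for mitosis), protein amounts in NP-40 versus SDS lysates quantified by mass spectrometry, three biological replicates.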
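Wherever solubility in G1/S (NP-40 vs SDS abundance) is given: HeLa Kyoto cells arrested at G1/S by double thymidine block, proteins quantified by TMT10plex mass spectrometry in mild NP-40 versus SDS extracts, three biological replicates.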
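Wherever thermal stability score vs G1/S (z-score of summed log2 fold changes over temperatures) is given: synchronized HeLa Kyoto cells, proteins quantified by TMT10plex mass spectrometry, three biological replicates, mitosis taken 0.5 h after nocodazole release, G1/S directly after double thymidine block.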

Row | Sequence | melting temperature ([1]; cell cycle stage: G1/S) | melting temperature ([1]; cell cycle stage: mitosis) | solubility in G1/S (log2) [2] | thermal stability score [3, 5] | thermal stability score ([3]; cell cycle stage: mitosis) | solubility change mitosis (log2) [4]
1 | MAAAAQLSLTQLSSGNPVYEKYYRQVDTGNTGRVLASDAAAFLKKSGLPDLILGKIWDLADTDGKGILNKQEFFVALRLVACAQNGLEVSLSSLNLAVPPPRFHDTSSPLLISGTSAAELPWAVKPEDKAKYDAIFDSLSPVNGFLSGDKVKPVLLNSKLPVDILGRVWELSDIDHDGMLDRDEFAVAMFLVYCALEKEPVPMSLPPALVPPSKRKTWVVSPAEKAKYDEIFLKTDKDMDGFVSGLEVREIFLKTGLPSTLLAHIWSLCDTKDCGKLSKDQFALAFHLISQKLIKGIDPPHVLTPEMIPPSDRASLQKNIIGSSPVADFSAIKELDTLNNEIVDLQREKNNVEQDLKEKEDTIKQRTSEVQDLQDEVQRENTNLQKLQAQKQQVQELLDELDEQKAQLEEQLKEVRKKCAEEAQLISSLKAELTSQESQISTYEEELAKAREELSRLQQETAELEESVESGKAQLEPLQQHLQDSQQEISSMQMKLMEMKDLENHNSQLNWCSSPHSILVNGATDYCSLSTSSSETANLNEHVEGQSNLESEPIHQESPARSSPELLPSGVTDENEVTTAVTEKVCSELDNNRHSKEEDPFNVDSSSLTGPVADTNLDFFQSDPFVGSDPFKDDPFGKIDPFGGDPFKGSDPFASDCFFRQSTDPFATSSTDPFSAANNSSITSVETLKHNDPFAPGGTVVAASDSATDPFASVFGNESFGGGFADFSTLSKVNNEDPFRSATSSSVSNVVITKNVFEETSVKSEDEPPALPPKIGTPTRPCPLPPGKRSINKLDSPDPFKLNDPFQPFPGNDSPKEKDPEIFCDPFTSATTTTNKEADPSNFANFSAYPSEEDMIEWAKRESEREEEQRLARLNQQEQEDLELAIALSKSEISEA [EPS15] | 51 °C | 51.5 °C | 0.2 | 0.399 | 1.19 | -0.117
2 | MAAAAVSESWPELELAERERRRELLLTGPGLEERVRAAGGQLPPRLFTLPLLHYLEVSGCGSLRAPGPGLAQGLPQLHSLVLRRNALGPGLSPELGPLPALRVLDLSGNALEALPPGQGLGPAEPPGLPQLQSLNLSGNRLRELPADLARCAPRLQSLNLTGNCLDSFPAELFRPGALPLLSELAAADNCLRELSPDIAHLASLKTLDLSNNQLSEIPAELADCPKLKEINFRGNKLRDKRLEKMVSGCQTRSILEYLRVGGRGGGKGKGRAEGSEKEESRRKRRERKQRREGGDGEEQDVGDAGRLLLRVLHVSENPVPLTVRVSPEVRDVRPYIVGAVVRGMDLQPGNALKRFLTSQTKLHEDLCEKRTAATLATHELRAVKGPLLYCARPPQDLKIVPLGRKEAKAKELVRQLQLEAEEQRKQKKRQSVSGLHRYLHLLDGNENYPCLVDADGDVISFPPITNSEKTKVKKTTSDLFLEVTSATSLQICKDVMDALILKMAEMKKYTLENKEEGSLSDTEADAVSGQLPDPTTNPSAGKDGPSLLVVEQVRVVDLEGSLKVVYPSKADLATAPPHVTVVR [LRRC47] | 53 °C | 52.2 °C | 0.238 | -0.334 | -1.47 | 0.0172
3 | MAAAAWLQVLPVILLLLGAHPSPLSFFSAGPATVAAADRSKWHIPIPSGKNYFSFGKILFRNTTIFLKFDGEPCDLSLNITWYLKSADCYNEIYNFKAEEVELYLEKLKEKRGLSGKYQTSSKLFQNCSELFKTQTFSGDFMHRLPLLGEKQEAKENGTNLTFIGDKTAMHEPLQTWQDAPYIFIVHIGISSSKESSKENSLSNLFTMTVEVKGPYEYLTLEDYPLMIFFMVMCIVYVLFGVLWLAWSACYWRDLLRIQFWIGAVIFLGMLEKAVFYAEFQNIRYKGESVQGALILAELLSAVKRSLARTLVIIVSLGYGIVKPRLGVTLHKVVVAGALYLLFSGMEGVLRVTGAQTDLASLAFIPLAFLDTALCWWIFISLTQTMKLLKLRRNIVKLSLYRHFTNTLILAVAASIVFIIWTTMKFRIVTCQSDWRELWVDDAIWRLLFSMILFVIMVLWRPSANNQRFAFSPLSEEEEEDEQKEPMLKESFEGMKMRSTKQEPNGNSKVNKAQEDDLKWVEENVPSSVTDVALPALLDSDEERMITHFERSKME [TMEM87A] | 59 °C | 60.5 °C | -0.0314 | -4.37 | -3.56 | -0.117
4 | MAAAEEEPKPKKLKVEAPQALRENILFGMGNPLLDISAVVDKDFLDKYSLKPNDQILAEDKHKELFDELVKKFKVEYHAGGSTQNSIKVAQWMIQQPHKAATFFGCIGIDKFGEILKRKAAEAHVDAHYYEQNEQPTGTCAACITGDNRSLIANLAAANCYKKEKHLDLEKNWMLVEKARVCYIAGFFLTVSPESVLKVAHHASENNRIFTLNLSAPFISQFYKESLMKVMPYVDILFGNETEAATFAREQGFETKDIKEIAKKTQALPKMNSKRQRIVIFTQGRDDTIMATESEVTAFAVLDQDQKEIIDTNGAGDAFVGGFLSQLVSDKPLTECIRAGHYAASIIIRRTGCTFPEKPDFH [ADK] | 56.3 °C | 56.9 °C | 0.242 | 1.79 | 2.86 | -0.112
5 | MAAAFEASGALAAVATAMPAEHVAVQVPAPEPTPGPVRILRTAQDLSSPRTRTGDVLLAEPADFESLLLSRPVLEGLRAAGFERPSPVQLKAIPLGRCGLDLIVQAKSGTGKTCVFSTIALDSLVLENLSTQILILAPTREIAVQIHSVITAIGIKMEGLECHVFIGGTPLSQDKTRLKKCHIAVGSPGRIKQLIELDYLNPGSIRLFILDEADKLLEEGSFQEQINWIYSSLPASKQMLAVSATYPEFLANALTKYMRDPTFVRLNSSDPSLIGLKQYYKVVNSYPLAHKVFEEKTQHLQELFSRIPFNQALVFSNLHSRAQHLADILSSKGFPAECISGNMNQNQRLDAMAKLKHFHCRVLISTDLTSRGIDAEKVNLVVNLDVPLDWETYMHRIGRAGRFGTLGLTVTYCCRGEEENMMMRIAQKCNINLLPLPDPIPSGLMEECVDWDVEVKAAVHTYGIASVPNQPLKKQIQKIERTLQIQKAHGDHMASSRNNSVSGLSVKSKNNTKQKLPVKSHSECGIIEKATSPKELGCDRQSEEQMKNSVQTPVENSTNSQHQVKEALPVSLPQIPCLSSFKIHQPYTLTFAELVEDYEHYIKEGLEKPVEIIRHYTGPGDQTVNPQNGFVRNKVIEQRVPVLASSSQSGDSESDSDSYSSRTSSQSKGNKSYLEGSSDNQLKDSESTPVDDRISLEQPPNGSDTPNPEKYQESPGIQMKTRLKEGASQRAKQSRRNLPRRSSFRLQTEAQEDDWYDCHREIRLSFSDTYQDYEEYWRAYYRAWQEYYAAASHSYYWNAQRHPSWMAAYHMNTIYLQEMMHSNQ [DDX20] | 47.5 °C | 48.8 °C | -0.119 | -0.14 | 3.36 | 0.084
6 | MAAAGAFRLRRAASALLLRSPRLPARELSAPARLYHKKVVDHYENPRNVGSLDKTSKNVGTGLVGAPACGDVMKLQIQVDEKGKIVDARFKTFGCGSAIASSSLATEWVKGKTVEEALTIKNTDIAKELCLPPVKLHCSMLAEDAIKAALADYKLKQEPKKGEAEKK [ISCU] | 53.3 °C | 54 °C | 0.467 | -1.67 | -2.36 | 0.0125
7 | MAAALRVAAVGARLSVLASGLRAAVRSLCSQATSVNERIENKRRTALLGGGQRRIDAQHKRGKLTARERISLLLDPGSFVESDMFVEHRCADFGMAADKNKFPGDSVVTGRGRINGRLVYVFSQDFTVFGGSLSGAHAQKICKIMDQAITVGAPVIGLNDSGGARIQEGVESLAGYADIFLRNVTASGVIPQISLIMGPCAGGAVYSPALTDFTFMVKDTSYLFITGPDVVKSVTNEDVTQEELGGAKTHTTMSGVAHRAFENDVDALCNLRDFFNYLPLSSQDPAPVRECHDPSDRLVPELDTIVPLESTKAYNMVDIIHSVVDEREFFEIMPNYAKNIIVGFARMNGRTVGIVGNQPKVASGCLDINSSVKGARFVRFCDAFNIPLITFVDVPGFLPGTAQEYGGIIRHGAKLLYAFAEATVPKVTVITRKAYGGAYDVMSSKHLCGDTNYAWPTAEIAVMGAKGAVEIIFKGHENVEAAQAEYIEKFANPFPAAVRGFVDDIIQPSSTRARICCDLDVLASKKVQRPWRKHANIPL [PCCB] | 54.3 °C | 54.9 °C | -0.114 | -1.53 | -1.91 | -0.114
8 | MAAALWGFFPVLLLLLLSGDVQSSEVPGAAAEGSGGSGVGIGDRFKIEGRAVVPGVKPQDWISAARVLVDGEEHVGFLKTDGSFVVHDIPSGSYVVEVVSPAYRFDPVRVDITSKGKMRARYVNYIKTSEVVRLPYPLQMKSSGPPSYFIKRESWGWTDFLMNPMVMMMVLPLLIFVLLPKVVNTSDPDMRREMEQSMNMLNSNHELPDVSEFMTRLFSSKSSGKSSSGSSKTGKSGAGKRR [EMC7] | 54.4 °C | 54.1 °C | 0.424 | -1.44 | -0.331 | 0.0594
9 | MAAAPPLSKAEYLKRYLSGADAGVDRGSESGRKRRKKRPKPGGAGGKGMRIVDDDVSWTAISTTKLEKEEEEDDGDLPVVAEFVDERPEEVKQMEAFRSSAKWKLLGGHNEDLPSNRHFRHDTPDSSPRRVRHGTPDPSPRKDRHDTPDPSPRRARHDTPDPSPLRGARHDSDTSPPRRIRHDSSDTSPPRRARHDSPDPSPPRRPQHNSSGASPRRVRHDSPDPSPPRRARHGSSDISSPRRVHNNSPDTSRRTLGSSDTQQLRRARHDSPDLAPNVTYSLPRTKSGKAPERASSKTSPHWKESGASHLSFPKNSKYEYDPDISPPRKKQAKSHFGDKKQLDSKGDCQKATDSDLSSPRHKQSPGHQDSDSDLSPPRNRPRHRSSDSDLSPPRRRQRTKSSDSDLSPPRRSQPPGKKAAHMYSGAKTGLVLTDIQREQQELKEQDQETMAFEAEFQYAETVFRDKSGRKRNLKLERLEQRRKAEKDSERDELYAQWGKGLAQSRQQQQNVEDAMKEMQKPLARYIDDEDLDRMLREQEREGDPMANFIKKNKAKENKNKKVRPRYSGPAPPPNRFNIWPGYRWDGVDRSNGFEQKRFARLASKKAVEELAYKWSVEDM [BUD13] | 52.9 °C | 53 °C | -0.884 | 0.0865 | -0.687 | 0.878
10 | MAAARHSTLDFMLGAKADGETILKGLQSIFQEQGMAESVHTWQDHGYLATYTNKNGSFANLRIYPHGLVLLDLQSYDGDAQGKEEIDSILNKVEERMKELSQDSTGRVKRLPPIVRGGAIDRYWPTADGRLVEYDIDEVVYDEDSPYQNIKILHSKQFGNILILSGDVNLAESDLAYTRAIMGSGKEDYTGKDVLILGGGDGGILCEIVKLKPKMVTMVEIDQMVIDGCKKYMRKTCGDVLDNLKGDCYQVLIEDCIPVLKRYAKEGREFDYVINDLTAVPISTSPEEDSTWEFLRLILDLSMKVLKQDGKYFTQGNCVNLTEALSLYEEQLGRLYCPVEFSKEIVCVPSYLELWVFYTVWKKAKP [SMS] | 56.6 °C | 56.5 °C | 0.398 | -2.98 | -1.47 | -0.166
11 | MAAATGDPGLSKLQFAPFSSALDVGFWHELTQKKLNEYRLDEAPKDIKGYYYNGDSAGLPARLTLEFSAFDMSAPTPARCCPAIGTLYNTNTLESFKTADKKLLLEQAANEIWESIKSGTALENPVLLNKFLLLTFADLKKYHFYYWFCYPALCLPESLPLIQGPVGLDQRFSLKQIEALECAYDNLCQTEGVTALPYFLIKYDENMVLVSLLKHYSDFFQGQRTKITIGVYDPCNLAQYPGWPLRNFLVLAAHRWSSSFQSVEVVCFRDRTMQGARDVAHSIIFEVKLPEMAFSPDCPKAVGWEKNQKGGMGPRMVNLSECMDPKRLAESSVDLNLKLMCWRLVPTLDLDKVVSVKCLLLGAGTLGCNVARTLMGWGVRHITFVDNAKISYSNPVRQPLYEFEDCLGGGKPKALAAADRLQKIFPGVNARGFNMSIPMPGHPVNFSSVTLEQARRDVEQLEQLIESHDVVFLLMDTRESRWLPAVIAASKRKLVINAALGFDTFVVMRHGLKKPKQQGAGDLCPNHPVASADLLGSSLFANIPGYKLGCYFCNDVVAPGDSTRDRTLDQQCTVSRPGLAVIAGALAVELMVSVLQHPEGGYAIASSSDDRMNEPPTSLGLVPHQIRGFLSRFDNVLPVSLAFDKCTACSSKVLDQYEREGFNFLAKVFNSSHSFLEDLTGLTLLHQETQAAEIWDMSDDETI [ATG7] | 51.3 °C | 51.5 °C | -0.177 | -0.14 | 0.0236 | -0.0691
